This data set has as its system Escherichia coli TOP10. The data set can be described thus: shrunken log2 fold change of peptide-encoding DNA abundance (4.5 h post-induction vs induction); higher = less antimicrobial activity (less host growth inhibition). Particulars: time post-induction: 4.5 h; library: site-saturation at positions 5, 18, 19, 20.
As to RRIRLRPPRLPRPRPRPITSPRP, the “shrunken log2 fold change” value turned out to be 0.0662.

With RRIRFRPPRLPRPRPRPCPIPRP, the “shrunken log2 fold change” value was -0.488. Then RRIRIRPPRLPRPRPRPGNAPRP, with -0.0762; and RRIRCRPPRLPRPRPRPNYTPRP, with -0.879. RRIRSRPPRLPRPRPRPNDPPRP: the “shrunken log2 fold change” value was -0.619. For RRIRKRPPRLPRPRPRPHICPRP, the “shrunken log2 fold change” value worked out at 0.00561.

Regarding RRIRYRPPRLPRPRPRPTPEPRP, the “shrunken log2 fold change” value was 0.264. Then RRIRSRPPRLPRPRPRPIVQPRP, with 0.144; and RRIRDRPPRLPRPRPRPSGLPRP, with 0.284; and RRIRIRPPRLPRPRPRPPCVPRP, with -0.173. For RRIRHRPPRLPRPRPRPCCGPRP, the “shrunken log2 fold change” value is -0.114.

For RRIRVRPPRLPRPRPRPNPRPRP, the “shrunken log2 fold change” value is 0.21. With RRIRPRPPRLPRPRPRPRQQPRP, the “shrunken log2 fold change” value came to 0.13. Then RRIRFRPPRLPRPRPRPYETPRP, with -0.185. In the case of RRIRCRPPRLPRPRPRPKCWPRP, the “shrunken log2 fold change” value was 0.302. For RRIRLRPPRLPRPRPRPMSPPRP, the “shrunken log2 fold change” value was determined as 0.0855. To RRIRLRPPRLPRPRPRPCECPRP belongs 0.202; to RRIRPRPPRLPRPRPRPAPVPRP, 0.409. RRIRCRPPRLPRPRPRPDYAPRP: the “shrunken log2 fold change” value was -0.278.

For RRIRYRPPRLPRPRPRPHFSPRP, the “shrunken log2 fold change” value was -0.256. With RRIRARPPRLPRPRPRPWGNPRP, the “shrunken log2 fold change” value was found to be 0.00277. For the sequence RRIRCRPPRLPRPRPRPHWHPRP, the “shrunken log2 fold change” value was -0.42. With RRIRRRPPRLPRPRPRPIRDPRP, the “shrunken log2 fold change” value is 0.196.

On to RRIRWRPPRLPRPRPRPAMIPRP, for which the “shrunken log2 fold change” value was -0.0987. On to RRIRERPPRLPRPRPRPQGSPRP, for which the “shrunken log2 fold change” value is -0.107.

In the case of RRIRTRPPRLPRPRPRPTYCPRP, the “shrunken log2 fold change” value is -0.379. As for RRIRIRPPRLPRPRPRPGTAPRP, the “shrunken log2 fold change” value was -0.0164. RRIRCRPPRLPRPRPRPWTPPRP: the “shrunken log2 fold change” value was -0.131. To RRIRERPPRLPRPRPRPNADPRP belongs -0.0389; to RRIRPRPPRLPRPRPRPGKLPRP, -0.4; to RRIRRRPPRLPRPRPRPRWQPRP, 0.636. As for RRIRWRPPRLPRPRPRPHFTPRP, the “shrunken log2 fold change” value is -0.306. For RRIRDRPPRLPRPRPRPHTNPRP, the “shrunken log2 fold change” value is -0.367. For the sequence RRIRMRPPRLPRPRPRPVDVPRP, the “shrunken log2 fold change” value was -0.163.

Turning to RRIRVRPPRLPRPRPRPVTRPRP, the “shrunken log2 fold change” value was 0.0259.

Regarding RRIRDRPPRLPRPRPRPMRGPRP, the “shrunken log2 fold change” value amounted to 0.937. Turning to RRIRARPPRLPRPRPRPKNHPRP, the “shrunken log2 fold change” value is -0.125. Consider RRIRHRPPRLPRPRPRPDSNPRP, for which the “shrunken log2 fold change” value is -0.0814. Then RRIRQRPPRLPRPRPRPDTEPRP, with 0.0371; and RRIRPRPPRLPRPRPRPRKFPRP, with -0.188. With RRIRARPPRLPRPRPRPIIPPRP, the “shrunken log2 fold change” value was -0.256.

As for RRIRHRPPRLPRPRPRPYLCPRP, the “shrunken log2 fold change” value is -0.0059. With RRIRDRPPRLPRPRPRPMTQPRP, the “shrunken log2 fold change” value is 0.0403.

Turning to RRIRCRPPRLPRPRPRPYEVPRP, the “shrunken log2 fold change” value is -0.0152. Then RRIRARPPRLPRPRPRPHWDPRP, with 0.116; and RRIRNRPPRLPRPRPRPVQHPRP, with -0.258. As to RRIRNRPPRLPRPRPRPFQNPRP, the “shrunken log2 fold change” value was -0.0271. Consider RRIRVRPPRLPRPRPRPFMGPRP, for which the “shrunken log2 fold change” value is -0.334. For the sequence RRIRLRPPRLPRPRPRPMPTPRP, the “shrunken log2 fold change” value was found to be 0.449. As to RRIRIRPPRLPRPRPRPLLNPRP, the “shrunken log2 fold change” value is -0.731.
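Further: peptides expressed intracellularly from a pBAD plasmid library in pooled LB shake-flask culture, induced with 0.3% L-arabinose, DNA abundance read by NGS, three biological replicates, DESeq2 with apeglm shrinkage.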
